3 molecules from paper doi:10.1101/2025.02.13.638205 (2025) can be followed below.

As usually defined, the Kd is the equilibrium constant for the complex coming apart.

Sequences and labels used below:
B1: nanobody W2812 (VHH)
VHH: QVQLQESGGGLVQPGGSLRLSCAASGRTFSSYMMAWFRQSQGNERELVAGLTRSGVSAYYADSVKGRFTISRDNAKNTVYLQMNSLKPKDTAVYYCAAASTTYINHIYTNPSNYPHWGPGTQVTVSS
B2: nanobody W2810 (VHH)
VHH: QVQLQESGGGLVQAGGSLRLSCAASGRTFSSYAMGWFHQAPGKEREFVASISWSGGSIRYADSVKGRFTVSRDNAKNTAYLQMNSLKPEDTGVYYCAAGPYSSDYGGFGSWGQGTQVTVSS
B3: recombinant Pfs230 D13D14 (K2828-E3111) (domain or fragment)
chain: KTIGKDICKYDVTTKVATCEIIDTIDSSVLKEHHTVHYSITLSRWDKLIIKYPTNEKTHFENFFVNPFNLKDKVLYNYNKPINIEHILPGAITTDIYDTRTKIKQYILRIPPYVHKDIHFSLEFNNSLSLTKQNQNIIYGNVAKIFIHINQGYKEIHGCDFTGKYSHLFTYSKKPLPNDDDICNVTIGNNTFSGFACLSHFELKPNNCFSSVYDYNEANKVKKLFDLSTKVELDHIKQNTSGYTLSYIIFNKESTKLKFSCTCSSNYSNYTIRITFDPNYIIPE

The target in assay [1] is B3. Put plainly: BLI. In general terms: In BLI a coated tip is dipped into the sample, and binding shifts an interference pattern.
For assay [2], the target named is W2811. Nature of the assay: BLI.

Consider B1, for which the Kd in assay [1] stood at 1.55 nM.
On to B2, for which the Kd in assay [1] was found to be 4.8 nM.
In assay [2], B3 registered a Kd of 5.12 nM.
